Data from the supplement of paper PMC9112550, “Optimization of the antimicrobial peptide Bac7 by deep mutational scanning” (BMC Biology, 2022).

Test system: Escherichia coli TOP10
Experiment: shrunken log2 fold change of peptide-encoding DNA abundance (4.5 h post-induction vs induction); higher = less antimicrobial activity (less host growth inhibition)
Conditions: time post-induction: 4.5 h; library: site-saturation at positions 5, 18, 19, 20
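Also: peptides expressed intracellularly from a pBAD plasmid library in pooled LB shake-flask culture, induced with 0.3% L-arabinose, DNA abundance read by NGS, three biological replicates, DESeq2 with apeglm shrinkage.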

Sequence	shrunken log2 fold change
RRIRQRPPRLPRPRPRPDLHPRP	0.00152
RRIRQRPPRLPRPRPRPDLPPRP	-0.134
RRIRQRPPRLPRPRPRPDMNPRP	-0.654
RRIRQRPPRLPRPRPRPDMWPRP	0.0275
RRIRQRPPRLPRPRPRPDNLPRP	-0.348
RRIRQRPPRLPRPRPRPDPPPRP	0.316
RRIRQRPPRLPRPRPRPDPQPRP	-0.159
RRIRQRPPRLPRPRPRPDQGPRP	-0.0223
RRIRQRPPRLPRPRPRPDRIPRP	-0.185
RRIRQRPPRLPRPRPRPDRVPRP	0.00438
RRIRQRPPRLPRPRPRPDSPPRP	0.0174
RRIRQRPPRLPRPRPRPDTPPRP	-0.039
RRIRQRPPRLPRPRPRPDTQPRP	-0.401
RRIRQRPPRLPRPRPRPDVSPRP	0.0409
RRIRQRPPRLPRPRPRPDWKPRP	0.0112
RRIRQRPPRLPRPRPRPDWPPRP	0.416
RRIRQRPPRLPRPRPRPEACPRP	-0.000521
RRIRQRPPRLPRPRPRPEADPRP	0.138
RRIRQRPPRLPRPRPRPECAPRP	0.407
RRIRQRPPRLPRPRPRPECNPRP	0.062
RRIRQRPPRLPRPRPRPECYPRP	0.0583
RRIRQRPPRLPRPRPRPEDKPRP	0.0591
RRIRQRPPRLPRPRPRPEDLPRP	0.125
RRIRQRPPRLPRPRPRPEGTPRP	0.231
RRIRQRPPRLPRPRPRPEHDPRP	-0.0684

Sequence	shrunken log2 fold change
RRIRQRPPRLPRPRPRPEHPPRP	0.0713
RRIRQRPPRLPRPRPRPEHSPRP	-0.0123
RRIRQRPPRLPRPRPRPEIEPRP	-0.00695
RRIRQRPPRLPRPRPRPEKPPRP	-0.129
RRIRQRPPRLPRPRPRPELSPRP	-0.00478
RRIRQRPPRLPRPRPRPENQPRP	0.128
RRIRQRPPRLPRPRPRPENVPRP	-0.0767
RRIRQRPPRLPRPRPRPEPDPRP	0.271
RRIRQRPPRLPRPRPRPEPTPRP	0.877
RRIRQRPPRLPRPRPRPERFPRP	-0.0441
RRIRQRPPRLPRPRPRPERVPRP	0.0836
RRIRQRPPRLPRPRPRPETLPRP	-0.0597
RRIRQRPPRLPRPRPRPEWDPRP	0.0586
RRIRQRPPRLPRPRPRPEYMPRP	-0.0613
RRIRQRPPRLPRPRPRPFAGPRP	0.0242
RRIRQRPPRLPRPRPRPFAWPRP	-0.0355
RRIRQRPPRLPRPRPRPFCHPRP	0.00489
RRIRQRPPRLPRPRPRPFFKPRP	-0.132
RRIRQRPPRLPRPRPRPFGLPRP	-0.131
RRIRQRPPRLPRPRPRPFGPPRP	0.0675
RRIRQRPPRLPRPRPRPFHEPRP	-0.0703
RRIRQRPPRLPRPRPRPFHLPRP	-0.0558
RRIRQRPPRLPRPRPRPFIEPRP	-0.0062
RRIRQRPPRLPRPRPRPFIFPRP	-0.257
RRIRQRPPRLPRPRPRPFKPPRP	-0.0337

Sequence	shrunken log2 fold change
RRIRQRPPRLPRPRPRPFMGPRP	-0.0627
RRIRQRPPRLPRPRPRPFMIPRP	0.0993
RRIRQRPPRLPRPRPRPFNKPRP	-0.0963
RRIRQRPPRLPRPRPRPFNQPRP	0.00312
RRIRQRPPRLPRPRPRPFPCPRP	0.0349
RRIRQRPPRLPRPRPRPFPHPRP	0.259
RRIRQRPPRLPRPRPRPFPYPRP	0.0303
RRIRQRPPRLPRPRPRPFQVPRP	0.0303
RRIRQRPPRLPRPRPRPFRNPRP	0.033
RRIRQRPPRLPRPRPRPFRYPRP	-0.245
RRIRQRPPRLPRPRPRPFTAPRP	-0.183
RRIRQRPPRLPRPRPRPFVFPRP	-0.273
RRIRQRPPRLPRPRPRPFVWPRP	0.049
RRIRQRPPRLPRPRPRPFVYPRP	-0.755
RRIRQRPPRLPRPRPRPFWCPRP	0.0825
RRIRQRPPRLPRPRPRPFYCPRP	-0.314
RRIRQRPPRLPRPRPRPFYNPRP	-0.739
RRIRQRPPRLPRPRPRPFYRPRP	-0.0149
RRIRQRPPRLPRPRPRPGDAPRP	1.65
RRIRQRPPRLPRPRPRPGDNPRP	-0.203
RRIRQRPPRLPRPRPRPGETPRP	0.0131
RRIRQRPPRLPRPRPRPGGDPRP	0.0869
RRIRQRPPRLPRPRPRPGHNPRP	0.0106
RRIRQRPPRLPRPRPRPGHQPRP	-0.00101
RRIRQRPPRLPRPRPRPGKAPRP	0.0185

Sequence	shrunken log2 fold change
RRIRQRPPRLPRPRPRPGKIPRP	-0.0789
RRIRQRPPRLPRPRPRPGKRPRP	0.244
RRIRQRPPRLPRPRPRPGLAPRP	0.197
RRIRQRPPRLPRPRPRPGLMPRP	-0.0533
RRIRQRPPRLPRPRPRPGMRPRP	0.941
RRIRQRPPRLPRPRPRPGPEPRP	0.0674
RRIRQRPPRLPRPRPRPGPWPRP	0.479
RRIRQRPPRLPRPRPRPGQHPRP	-0.0301
RRIRQRPPRLPRPRPRPGRIPRP	-0.123
RRIRQRPPRLPRPRPRPGTHPRP	-0.00939
RRIRQRPPRLPRPRPRPGTLPRP	-0.0134
RRIRQRPPRLPRPRPRPGVDPRP	0.244
RRIRQRPPRLPRPRPRPGVIPRP	0.0679
RRIRQRPPRLPRPRPRPHAAPRP	0.465
RRIRQRPPRLPRPRPRPHDKPRP	-0.773
RRIRQRPPRLPRPRPRPHFCPRP	0.0177
RRIRQRPPRLPRPRPRPHFDPRP	-0.000826
RRIRQRPPRLPRPRPRPHFEPRP	0.154
RRIRQRPPRLPRPRPRPHFRPRP	0.092
RRIRQRPPRLPRPRPRPHGHPRP	-0.113
RRIRQRPPRLPRPRPRPHILPRP	-0.361
RRIRQRPPRLPRPRPRPHIPPRP	-0.0245
RRIRQRPPRLPRPRPRPHKAPRP	-0.0398
RRIRQRPPRLPRPRPRPHKDPRP	-0.105
RRIRQRPPRLPRPRPRPHMQPRP	-0.288

Sequence	shrunken log2 fold change
RRIRQRPPRLPRPRPRPHNDPRP	-0.421
RRIRQRPPRLPRPRPRPHQYPRP	-0.237
RRIRQRPPRLPRPRPRPHRDPRP	-0.322
RRIRQRPPRLPRPRPRPHRHPRP	-0.284
RRIRQRPPRLPRPRPRPHRTPRP	-0.0723
RRIRQRPPRLPRPRPRPHSMPRP	-0.438
RRIRQRPPRLPRPRPRPHTCPRP	-0.325
RRIRQRPPRLPRPRPRPHTGPRP	-0.18
RRIRQRPPRLPRPRPRPHTMPRP	-0.9
RRIRQRPPRLPRPRPRPHYLPRP	-0.0046
RRIRQRPPRLPRPRPRPHYYPRP	-0.0332
RRIRQRPPRLPRPRPRPIARPRP	-0.0171
RRIRQRPPRLPRPRPRPICCPRP	0.259
RRIRQRPPRLPRPRPRPIDIPRP	0.107
RRIRQRPPRLPRPRPRPIEHPRP	0.0215
RRIRQRPPRLPRPRPRPIFIPRP	-0.472
RRIRQRPPRLPRPRPRPIGCPRP	0.0253
RRIRQRPPRLPRPRPRPIGEPRP	-0.0171
RRIRQRPPRLPRPRPRPIGGPRP	-0.0328
RRIRQRPPRLPRPRPRPIGSPRP	-0.00968
RRIRQRPPRLPRPRPRPIHSPRP	-0.138
RRIRQRPPRLPRPRPRPIHWPRP	-0.198
RRIRQRPPRLPRPRPRPIITPRP	-1.01
RRIRQRPPRLPRPRPRPIKCPRP	-0.00607
RRIRQRPPRLPRPRPRPILCPRP	-0.0627

Sequence	shrunken log2 fold change
RRIRQRPPRLPRPRPRPILHPRP	-1.25
RRIRQRPPRLPRPRPRPILWPRP	-0.185
RRIRQRPPRLPRPRPRPIMKPRP	-0.0798
RRIRQRPPRLPRPRPRPIMNPRP	-1.23
RRIRQRPPRLPRPRPRPIMTPRP	-0.107
RRIRQRPPRLPRPRPRPIQIPRP	-0.105
RRIRQRPPRLPRPRPRPIQNPRP	-0.11
RRIRQRPPRLPRPRPRPIQRPRP	-0.0376
RRIRQRPPRLPRPRPRPIRPPRP	0.0227
RRIRQRPPRLPRPRPRPIVGPRP	0.0288
RRIRQRPPRLPRPRPRPIWGPRP	-0.105
RRIRQRPPRLPRPRPRPIWPPRP	-0.0155
RRIRQRPPRLPRPRPRPIYSPRP	-0.1
RRIRQRPPRLPRPRPRPIYTPRP	0.036
RRIRQRPPRLPRPRPRPKAHPRP	0.0165
RRIRQRPPRLPRPRPRPKCDPRP	0.151
RRIRQRPPRLPRPRPRPKCTPRP	-0.0317
RRIRQRPPRLPRPRPRPKDAPRP	0.0166
RRIRQRPPRLPRPRPRPKDEPRP	0.0571
RRIRQRPPRLPRPRPRPKDMPRP	0.0374
RRIRQRPPRLPRPRPRPKDSPRP	-0.135
RRIRQRPPRLPRPRPRPKEVPRP	0.382
RRIRQRPPRLPRPRPRPKFAPRP	0.0489
RRIRQRPPRLPRPRPRPKGFPRP	-0.219
RRIRQRPPRLPRPRPRPKGVPRP	-0.00208
